Legend:
[1] = target: T1, PcrV of P. aeruginosa strain PA103 (on TTSS-induced bacteria) (Pseudomonas aeruginosa strain PA103); assay: cell-based or functional assay
[2] = target: T1, PcrV of P. aeruginosa strain PA103 (on …); assay: cell-based or functional assay; remark: listed apart in the source
[3] = target: T1, PcrV of P. aeruginosa strain PA103 (on …); assay: cell-based or functional assay; remark: listed apart in the source
[4] = target: T2, recombinant PcrV protein (rPcrV), strain PAO1, amino acid residues 1-294, C-terminal His6 (Pseudomonas aeruginosa strain PAO1); assay: ELISA, periplasmic extract on biotinylated rPcrV
[5] = target: GST-PcrV (strain PAO1, amino acid residues 1-294) (Pseudomonas aeruginosa strain PAO1); assay: SPR Biacore T100, GST-PcrV immobilised
[6] = target: T1, PcrV of P. aeruginosa strain PA103 (on …); assay: cell-based or functional assay; remark: listed apart in the source
[7] = target: T2, recombinant PcrV protein (rPcrV), …; assay: SPR ProteOn, periplasmic extract on immobilised rPcrV
[8] = target: T1, PcrV of P. aeruginosa strain PA103 (on …); assay: cell-based or functional assay; remark: listed apart in the source
[9] = target: Full length PcrV (aa 1-294), C-terminal c-myc and His6 tags (Pseudomonas aeruginosa strain PAO1); assay: ELISA, binder coated
Wherever cytotox assay (% inhibition), P3X63, PA103 is given: test concentration or dose not given here.

Row | Binder | Efficacy (%), P3X63 cytotoxicity, MOI 12 [1] | IC50 value (M), P3X63 cytotoxicity, MOI 12 [1] | Ratio (IC50 Fab 13.37/IC50 Nanobody), A549 cytotoxicity [2] | % inhibition in P3X63 cytotoxicity assay, extract 1/150 [3] | also measured
1 | Nanobody 259 (1E11-40GS-5H01) (VHH) EVQLVESGGGLVQPGGSLRLSCAASGSTRSVNPMAWFRQAPGRQREWVATISRSGYATYADSVKGRFTISGDNAKSSVYLQMNSLKPEDTAVYYCVTGTYWGQGTLVTVSSGGGGSGGGGSGGGGSGGGGSGGGGSGGGGSGGGGSGGGGSEVQLVESGGGLVQPGGSLRLSCAASGSTLDYYAIGWFRQAPGKEREGVSCTSNSGSTYYGGSVKGRFTASRDNAKNTVYLQMNSLRPEDTAVYYCVATIGCATLGGTLDVQRYYYRGQGTLVTVSS | 100% | 3.9e-11 M | 9 fold | 52% | –
2 | Nanobody 257 (13F07-40GS-2B10) (VHH) EVQLVESGGGLVQAGGSLRLSCAASGNTFSTNPMYWYRQAEGKQRELVASISSRGITNYADSVRGRFSISRDNTKDTVYLQMNSLKPEDTAVYYCRLASLSSGTVYWGKGTLVTVSSGGGGSGGGGSGGGGSGGGGSGGGGSGGGGSGGGGSGGGGSEVQLVESGGGLVQPGGSLRLSCAASGSIFSINNMGWYRQAPGKQRELVTVVTSNLITTYADSVKGRFTISRDNAKNTVYLQMNSLKPEDTAVYYCNAWARSVGSVPYSQFWGQGTLVTVSS | 100% | 1.3e-10 M | 10 fold | 80% | –
3 | Nanobody 275 (2G09-40GS-5H01) (VHH) EVQLVESGGGLVQPGGSLRLSCAASGSFGDNYELYAMTWFRQAPGERRDFVASVTGDGSTSYADSVKDRFTISRDNAKKLMYLQMNSLKPEDTAVYYCRLLNYWGQGTLVTVSSGGGGSGGGGSGGGGSGGGGSGGGGSGGGGSGGGGSGGGGSEVQLVESGGGLVQPGGSLRLSCAASGSTLDYYAIGWFRQAPGKEREGVSCTSNSGSTYYGGSVKGRFTASRDNAKNTVYLQMNSLRPEDTAVYYCVATIGCATLGGTLDVQRYYYRGQGTLVTVSS | 100% | 3.7e-09 M | 1 fold | 66% | –
4 | Nanobody 335 (5H01-40GS-1E11) (VHH) EVQLVESGGGLVQPGGSLRLSCAASGSTLDYYAIGWFRQAPGKEREGVSCTSNSGSTYYGGSVKGRFTASRDNAKNTVYLQMNSLRPEDTAVYYCVATIGCATLGGTLDVQRYYYRGQGTLVTVSSGGGGSGGGGSGGGGSGGGGSGGGGSGGGGSGGGGSGGGGSEVQLVESGGGLVQPGGSLRLSCAASGSTRSVNPMAWFRQAPGRQREWVATISRSGYATYADSVKGRFTISGDNAKSSVYLQMNSLKPEDTAVYYCVTGTYWGQGTLVTVSS | 100% | 6.4e-11 M | 1 fold | 46% | –
5 | Nanobody 319 (13F07-40GS-6B05) (VHH) EVQLVESGGGLVQAGGSLRLSCAASGNTFSTNPMYWYRQAEGKQRELVASISSRGITNYADSVRGRFSISRDNTKDTVYLQMNSLKPEDTAVYYCRLASLSSGTVYWGKGTLVTVSSGGGGSGGGGSGGGGSGGGGSGGGGSGGGGSGGGGSGGGGSEVQLVESGGGLVQPGGSLRLSCAASGSIFSINTMGWYRQAPGKQRELVSTITSNLVPHYADSVQGRFTISRDNARNTVYLQMNSLKPQDTAHYYCNAWARSSGATPYTNYWGQGTLVTVSS | 100% | 8.1e-11 M | 2 fold | 46% | –
6 | Nanobody 5E02 (VHH) VHH: EVQLVESGGGLVQPGGSLRLSCAASGITLDSIAICWFRQAPGKEREGVSCSRGSDGSTYYADSVKGRFTISRVNAKNTVYLQMNSLKPEDTAVYYCAAAPSIFYSGGYFPSGMDYWGKGTQVTVSS | – | – | – | – | binding ELISA (OD 450 nm) [4]: 2.43 OD 450 nm; Kd [5]: 4 nM; koff [5]: 0.00068 s⁻¹; kon [5]: 180000 M⁻¹ s⁻¹; cytotox assay (% inhibition), P3X63, PA103 [6]: 71%; koff [7]: 0.00057 s⁻¹; % inhibition, P3X63 cytotoxicity assay, MOI 4 [8]: 100%; IC50 (nM), P3X63 cytotoxicity assay, MOI 4 [8]: 38 nM
7 | Nanobody 256 (13F07-40GS-5H01) (VHH) EVQLVESGGGLVQAGGSLRLSCAASGNTFSTNPMYWYRQAEGKQRELVASISSRGITNYADSVRGRFSISRDNTKDTVYLQMNSLKPEDTAVYYCRLASLSSGTVYWGKGTLVTVSSGGGGSGGGGSGGGGSGGGGSGGGGSGGGGSGGGGSGGGGSEVQLVESGGGLVQPGGSLRLSCAASGSTLDYYAIGWFRQAPGKEREGVSCTSNSGSTYYGGSVKGRFTASRDNAKNTVYLQMNSLRPEDTAVYYCVATIGCATLGGTLDVQRYYYRGQGTLVTVSS | 100% | 5.4e-11 M | 21 fold | 65% | –
8 | Nanobody 261 (5H01-40GS-2B10) (VHH) EVQLVESGGGLVQPGGSLRLSCAASGSTLDYYAIGWFRQAPGKEREGVSCTSNSGSTYYGGSVKGRFTASRDNAKNTVYLQMNSLRPEDTAVYYCVATIGCATLGGTLDVQRYYYRGQGTLVTVSSGGGGSGGGGSGGGGSGGGGSGGGGSGGGGSGGGGSGGGGSEVQLVESGGGLVQPGGSLRLSCAASGSIFSINNMGWYRQAPGKQRELVTVVTSNLITTYADSVKGRFTISRDNAKNTVYLQMNSLKPEDTAVYYCNAWARSVGSVPYSQFWGQGTLVTVSS | 100% | 4.8e-10 M | 1 fold | 42% | –
9 | Nanobody 271 (7C10-40GS-14E10) (VHH) EVQLVESGGGLVQAGGSLRLSCTASGRTLSSYTMGWFRQAPGTEREFVAAMTRSGFNTYYADSVKGRFTISRDSTENTMALQMSSLKPEDTAVYYCTAGRGLTSYRADYWGQGTLVTVSSGGGGSGGGGSGGGGSGGGGSGGGGSGGGGSGGGGSGGGGSEVQLVESGGGLVQPGGSLRLSCAASGRIFSINTMGWYRQAPGKQRELVAGVTINAITNYADSVKGRFTISRDNAKNTVWLQMNSLKPEDTAVYYCHAWARSSGSAPYSQNWGQGTLVTVSS | 100% | 5.9e-10 M | 1 fold | 43% | –
10 | Nanobody 285 (13F07-40GS-2B02) (VHH) EVQLVESGGGLVQAGGSLRLSCAASGNTFSTNPMYWYRQAEGKQRELVASISSRGITNYADSVRGRFSISRDNTKDTVYLQMNSLKPEDTAVYYCRLASLSSGTVYWGKGTLVTVSSGGGGSGGGGSGGGGSGGGGSGGGGSGGGGSGGGGSGGGGSEVQLVESGGGLVQPGDSLRLSCAASGRILSINNMVWYRQAPGKQRELVAHITSSGSTGYADSVKGRFTISRDNAKNTFYLQMTNLNPEDTAVYYCNCWVSSDSNAPLKNYWGQGTLVTVSS | 100% | 6.1e-11 M | 1 fold | 59% | –
11 | Nanobody 277 (5H01-40GS-11B09) (VHH) EVQLVESGGGLVQPGGSLRLSCAASGSTLDYYAIGWFRQAPGKEREGVSCTSNSGSTYYGGSVKGRFTASRDNAKNTVYLQMNSLRPEDTAVYYCVATIGCATLGGTLDVQRYYYRGQGTLVTVSSGGGGSGGGGSGGGGSGGGGSGGGGSGGGGSGGGGSGGGGSEVQLVESGGGLVQAGGSLRLSCAASRLTFNHYNMGWFRQAPGKERERVAEVTWSGDKIYYVDSVKGRFTISRDNTPNPVYLYLQMNSLKPEDTAVYYCATAPRGLPYANGYWGQGTLVTVSS | 100% | 1.3e-11 M | 8 fold | 85% | –
12 | Nanobody 4G10 (VHH) VHH: EVQLVESGGGLVQAGGSLRLSCVISEDGVRNYDMGWFRQAPGKEREFVATINWSGGSTNYADSVKGRFTVSRDNAKNTMYLQMDSLKPEDTAVYYCVAAGFYNNYLRTAPNDWNDWGQGTQVTVSS | – | – | – | – | binding ELISA (OD 450 nm) [4]: 2.6 OD 450 nm; Kd [5]: 5 nM; koff [5]: 0.00065 s⁻¹; kon [5]: 140000 M⁻¹ s⁻¹; cytotox assay (% inhibition), P3X63, PA103 [6]: 81%; koff [7]: 0.00013 s⁻¹; % inhibition, P3X63 cytotoxicity assay, MOI 4 [8]: 100%; IC50 (nM), P3X63 cytotoxicity assay, MOI 4 [8]: 105 nM
13 | Nanobody 3E10 (VHH) VHH: EVQLVESGGGLVQAGGSLRLSCTASGHTFSSYTMGWFRQAPGKEREFVAAMTRSGFNTHYSDSVKGRFTISRDNTSRDNTKITMALQMNSLKPEDTAVYYCTTGRGLTSYVANFWGQGTQVTVSS | – | – | – | – | binding ELISA (OD 450 nm) [4]: 2.51 OD 450 nm; Kd [5]: 1 nM; koff [5]: 0.0039 s⁻¹; kon [5]: 2.7e+06 M⁻¹ s⁻¹; cytotox assay (% inhibition), P3X63, PA103 [6]: 25%; koff [7]: 0.0015 s⁻¹; % inhibition, P3X63 cytotoxicity assay, MOI 4 [8]: 94%; IC50 (nM), P3X63 cytotoxicity assay, MOI 4 [8]: 48 nM
14 | Fab 13.37 (Fab, V domains shown) VH: QVQLVESGGGVVQPGRSLRLSCAASGFTFSSYPLHWVRQAPGKGLEWVSFISYDGSEKYYASSVKGRFTISRDNSENTLYLQMNSLRPEDTAVYYCARNRGDIYYDFTYAMDIWGQGTMVTVSS VL: DIQMTQSPSSLSASVGDRVTITCRASQSISRWVAWYQQRPGKAPNLLIYDASSLKSGVPSRFSGSGSGTEFTLTISSLQPEDIATYYCQQFWGTPYTFGQGTKLEIKR | 100% | 5.4e-10 M | – | – | % inhibition, P3X63 cytotoxicity assay, MOI 1.5 [8]: 100%; % inhibition, P3X63 cytotoxicity assay, MOI 3 [8]: 100%; % inhibition, P3X63 cytotoxicity assay, MOI 4 [8]: 100%; IC50 (nM), P3X63 cytotoxicity assay, MOI 1.5 [8]: 1 nM; IC50 (nM), P3X63 cytotoxicity assay, MOI 3 [8]: 1 nM; IC50 (nM), P3X63 cytotoxicity assay, MOI 4 [8]: 8 nM; binding result [9]: binds
